For twelve molecules, EC50 and MFImax results are on record in patent publication EP4714971A1 (Shanghai Hansoh Biomedical Co., Ltd., dated 2024).

In test [1] the target is T1, human SEZ6 expressed on stably transfected CHO-K1 cells (human, UniProt Q53EL9 20-994).
T1 construct: also called CHO-SEZ6; hSEZ6
T1 sequence: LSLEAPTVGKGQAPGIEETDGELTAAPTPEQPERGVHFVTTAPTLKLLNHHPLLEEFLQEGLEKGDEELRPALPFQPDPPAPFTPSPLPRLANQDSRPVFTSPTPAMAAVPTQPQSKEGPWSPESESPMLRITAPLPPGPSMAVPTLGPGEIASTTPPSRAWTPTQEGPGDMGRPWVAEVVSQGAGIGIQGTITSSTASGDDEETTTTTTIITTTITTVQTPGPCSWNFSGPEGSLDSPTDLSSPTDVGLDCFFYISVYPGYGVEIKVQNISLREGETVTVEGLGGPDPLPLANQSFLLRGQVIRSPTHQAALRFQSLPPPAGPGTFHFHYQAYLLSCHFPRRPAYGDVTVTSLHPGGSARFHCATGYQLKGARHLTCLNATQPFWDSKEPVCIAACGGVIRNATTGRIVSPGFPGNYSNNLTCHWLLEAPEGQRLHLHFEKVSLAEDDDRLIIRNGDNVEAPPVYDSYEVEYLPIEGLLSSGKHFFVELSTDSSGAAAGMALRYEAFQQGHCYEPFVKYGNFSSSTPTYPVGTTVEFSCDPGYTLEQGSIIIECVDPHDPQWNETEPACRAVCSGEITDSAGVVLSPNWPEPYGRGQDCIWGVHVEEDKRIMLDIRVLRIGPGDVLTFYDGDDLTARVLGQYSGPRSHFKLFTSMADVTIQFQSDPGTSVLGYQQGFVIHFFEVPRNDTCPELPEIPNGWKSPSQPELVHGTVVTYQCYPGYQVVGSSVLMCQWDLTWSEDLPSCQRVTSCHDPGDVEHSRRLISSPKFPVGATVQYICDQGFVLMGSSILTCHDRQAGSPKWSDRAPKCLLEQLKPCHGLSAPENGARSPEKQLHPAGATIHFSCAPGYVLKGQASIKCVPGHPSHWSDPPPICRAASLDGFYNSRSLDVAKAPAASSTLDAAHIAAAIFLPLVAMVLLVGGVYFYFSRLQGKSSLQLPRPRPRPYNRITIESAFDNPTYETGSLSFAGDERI
Description: flow cytometry on CHO-K1 cells expressing human SEZ6.

Test [2] concerns the target T2, cynomolgus monkey SEZ6 expressed on stably transfected CHO-K1 cells (cynomolgus monkey, UniProt Q53EL9 20-994 (human entry)).
T2 construct: also called CHO-cynoSEZ6; monkey SEZ6 on the cell membrane
T2 chain: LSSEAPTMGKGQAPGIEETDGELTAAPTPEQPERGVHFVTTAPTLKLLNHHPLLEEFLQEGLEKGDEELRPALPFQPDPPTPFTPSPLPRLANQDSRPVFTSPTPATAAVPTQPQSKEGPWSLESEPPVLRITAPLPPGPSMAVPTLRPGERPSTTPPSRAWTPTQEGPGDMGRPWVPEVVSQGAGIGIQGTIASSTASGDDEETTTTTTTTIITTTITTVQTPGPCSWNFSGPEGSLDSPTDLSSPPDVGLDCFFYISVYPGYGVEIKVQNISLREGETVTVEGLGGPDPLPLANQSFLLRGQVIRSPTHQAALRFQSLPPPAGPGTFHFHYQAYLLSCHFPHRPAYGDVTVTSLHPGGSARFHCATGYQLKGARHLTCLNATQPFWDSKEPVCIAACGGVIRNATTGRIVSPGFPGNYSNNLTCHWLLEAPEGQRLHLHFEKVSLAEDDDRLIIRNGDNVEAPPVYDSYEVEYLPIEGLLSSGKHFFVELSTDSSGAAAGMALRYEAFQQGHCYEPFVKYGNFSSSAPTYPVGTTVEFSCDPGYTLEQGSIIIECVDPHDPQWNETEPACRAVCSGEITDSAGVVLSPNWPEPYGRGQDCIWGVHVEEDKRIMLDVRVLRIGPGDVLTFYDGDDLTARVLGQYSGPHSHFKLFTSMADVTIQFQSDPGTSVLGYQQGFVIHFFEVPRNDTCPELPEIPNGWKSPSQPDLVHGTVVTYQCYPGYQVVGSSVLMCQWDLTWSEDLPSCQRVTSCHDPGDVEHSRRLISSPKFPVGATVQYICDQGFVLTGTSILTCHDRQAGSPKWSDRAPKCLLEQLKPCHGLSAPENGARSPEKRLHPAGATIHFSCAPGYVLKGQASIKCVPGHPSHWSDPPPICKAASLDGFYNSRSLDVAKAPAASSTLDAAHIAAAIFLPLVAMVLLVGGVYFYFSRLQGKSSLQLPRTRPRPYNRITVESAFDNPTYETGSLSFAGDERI
Description: flow cytometry on CHO-K1 cells expressing cynomolgus monkey SEZ6.

Test [3] has as its target T1, human SEZ6 expressed on stably …. Description: flow cytometry on CHO-K1 cells expressing human SEZ6. The source holds these as a separate data set.

Read-outs that look alike come from different tables or passages of the source.

B1: PR3132 (antibody, human IgG1, kappa, V domains shown)
VH: EVQLVQSGAEVKKPGASVKISCKASGYTFTDYYINWMRQAPGQGLEWIGWIFPGSDNPYYNEMFKDRVTVTVDKSTSTVYMELSSLRSEDTAVYFCARGRYYGLYTMDYWGQGTLVTVSS
VL: DIQMTQSPSSLSASVGDRVTITCRASQDIRNYLNWYQQKPGKAPKFLIYYTSRLHSGVPSRFSGSGSGTDFTLTISSLQPEDFATYYCQQGNTLPWTFGGGTKVEIKR
notes: Humanized, human IgG1, kappa; also called humanized antibody of cAb3056
In test [1], B1 gave an EC50 of 1.72 nM and an MFImax of 1210.

B2: cAb3034 (antibody, V domains shown)
VH: QVQLQQSGAELARPGASVKMSCKASGYTFTSYTMHWVKQRPGQGLEWIGYINPRSDYTKYNQKVKDKATLTADKSSSTAYMQLSSLTSEDSAVYYCARGGLGLDYWGQGTTLTVSS
VL: DIQMTQSPSSLSASLGERVSLTCRASQEISGYLSWLQQTPDGTIKRLIYAASTLHSGVPKRFSGSRSGSDYSLTISSLESEDFAGYYCLQYASYPYTFGGGTKLEIK
Turning to B2, in test [2], a half-maximal response (EC50) required 0.37 nM and the MFImax was 17300. Moreover, in test [3], the concentration for a half-maximal effect (EC50) turned out to be 0.13 nM and the MFImax is 10100.

B3: cAb3046 (antibody, V domains shown)
VH: QVQLQQSGAELARPGASVKMSCKASGYTFTSYTMHWVKQRPGQGLEWIGYINPSSDYTKYNQKFKGKATMTADKSSSTAYMQLSSLTSEDSAVYYCGRGLVPFAYWGQGTLVTVSA
VL: DIQMTQSPSSLSASLGERVSLTCRASQEISGYLIWLQQKPDGTIKRLIYAASTLDSGVPKRVSGSRSGSDYSLTISSLESEDFADYYCLQYASYPLTFGGGTKLELK
As to B3, in test [2], the midpoint of the response, the EC50, lay at 0.48 nM and the MFImax was 16200. In test [3], a half-maximal response (EC50) required 0.06 nM and the MFImax was 5180.

B4: cAb3006 (antibody, V domains shown)
VH: QVQLQQSGAELARPGASVTLSCKASGYTFTDYEMHWVKETPVDGLEWIGGIDPETDNTVYNQKFKVKAILTEDKSSRIAYMELRSLTSEDSAVYYCTRGDWYFDVWGTGTTVTVSS
VL: DIVMSQSPSSQAVSVGEKVTMSCKSSQSLLNSRTRENYLAWYQQKAGQSPKLLIYWASTRDSGVPDRFTGSGSGTDFTLTINSVQAEDLAVYYCKQSYNLFTFGSGTKLEIK
As to B4, the EC50 came out at 0.41 nM in test [2] and 0.35 nM in test [3]. For the same molecule, the MFImax in test [2] came out at 15000; in test [3], 4830.

B5: cAb3009 (antibody, V domains shown)
VH: QVQLQQSGAELVRPGASVTLSCKASGYTFTDYEMHWVRQTPVHGLEWIGGIDPESDNTVYNQKFKGKVTLTEDKSSSTAYMEFRSLTSEDSAVYYCTRGDWYFDVWGTGTTVTVSS
VL: DIVMSQSPSSQAVSVGEKVTMTCKSSQSLLNSRTRENYLAWYQQKPGQSPKLLIYWASTRESGVPDRFTGSGSGADFTLTISSVQAEDLAVYYCGQSYNLFTFGSGTKLEIK
For B5, the EC50 in test [2] came out at 0.43 nM; in test [3] it was 0.81 nM. The MFImax in test [2] amounted to 15600; in test [3], 5420.

B6: cAb3003 (antibody, V domains shown)
VH: QVQLQQSGAELVRPGASVTLSCKASGYTFTGYEMHWVKQTPVHGLEWIGGIDPETDNTVYNQKFKGKAILTEDKSSSTAYMELRRLTSEDSAVYYCTRGDWYFDIWGTGTTVTVSS
VL: DIVLSQSPSSQAVSVGEKVTMSCKSSQSLLNSRTRENYLAWYQQKPGQSPKLLIYWASTRESGVPDRFTGSGSGTDFTLTISSVQAEDLAVYYCQQSYNLFTFGSGTILEIK
Take B6: in test [2], the EC50 worked out at 0.42 nM and the MFImax was 14300. In addition, in test [3], the midpoint of the response, the EC50, lay at 0.68 nM and the MFImax turned out to be 5110.

B7: cAb3005 (antibody, V domains shown)
VH: QVQLQQSGAELARPGASVTLSCKASGYKFTDYEMHWVKETPVNGLEWIGGIDPETENTVYNQKFKVKAILTEDKSSRTAYMELRSLTSEDSAVYYCTRGDWYFDVWGTGTTVTVSS
VL: DIVMSQSPSSQAVSVGEKVTMSCKSSQSLLNSRTRENYLAWYQQKAGQSPKLLIYWASTRDSGVPDRFTGSGSGTAFTLTINSVQAEDLAVYYCKQSYNLFTFGSGTKLEIK
For the molecule B7, in test [2], the EC50 is 0.41 nM and the MFImax was 14700. Besides, in test [3], the EC50 came to 0.52 nM and the MFImax is 4920.

B8: cAb3056 (antibody, V domains shown)
VH: QVQLQQSGPELMKPGASVKISCKASGYTFTDYYINWMKQRPGQGLEWIGWIFPGSDNPYYNEMFKDKATVSVDKSSSAVFMLLTSLTSEDSAVYFCARGRYYGLYTMDYWGQGTSVTVSS
VL: DIQMTQTTSSLSASLGDRVTISCRASQDIRNYLNWYQQKADGTVKFLIYYTSRLHSGVPSRFSGSGSGTDFSLTISNLEQEDVATYFCQQGNTLPWTFGGGTKVEIK
B8: in test [2], the EC50 is 0.95 nM and the MFImax was 14600. Further, in test [3], the EC50 was found to be 0.42 nM and the MFImax was determined as 6560.

B9: PR3121 (antibody, human IgG1, kappa, V domains shown)
VH: EVQLVQSGAEVKKPGSSVKVSCKASGYTFSIYWMHWVRQAPGQGLEWIGMIHPNSGSTNYNEKFKSRATLTVDKSTSTAYMELSSLRSEDTAVYYCARGGNYVAMDYWGQGTLVTVSS
VL: DIQMTQSPSSLSASVGDRVTITCTASSSVSSSYLHWYQQKPGKAPKLLIYSTSNLASGVPSRFSGSGSGTDFTLTISSLQPEDFATYYCHQYHRSLTFGGGTKVEIKR
notes: Humanized, human IgG1, kappa; also called humanized antibody of cAb3014
In test [1], B9 gave an EC50 of 0.45 nM and an MFImax of 1020.

B10: PR3123 (antibody, human IgG1, kappa, V domains shown)
VH: EVQLVQSGAEVKKPGSSVKVSCKASGYTFSIYWMHWVRQAPGQGLEWIGMIHPNSGSTNYNEKFKSRATLTVDKSTSTAYMELSSLRSEDTAVYYCARGGNYVAMDYWGQGTLVTVSS
VL: DIQLTQSPSSLSASVGDRVTMTCTASSSVSSSYLHWYQQKPGKSPKLWIYSTSNLASGVPSRFSGSGSGTDYTLTISSLQPEDFATYYCHQYHRSLTFGGGTKVEIKR
notes: Humanized, human IgG1, kappa; Only the order of listing separates it from PR3121; also called humanized antibody of cAb3014
For B10, in test [1], a half-maximal response (EC50) required 0.56 nM and the MFImax is 966.

B11: cAb3031 (antibody, V domains shown)
VH: DVQLQESGPGLVKPSQSLSLTCSVTGQSITSGYFWNWIRQLPGNKLEWMGHIRYDGNNNYNPSLKNRVSITRDTSKNQFFLKLNSVTTEDTATYYCARWLLRYYAMDSWGQGTSVTVSS
VL: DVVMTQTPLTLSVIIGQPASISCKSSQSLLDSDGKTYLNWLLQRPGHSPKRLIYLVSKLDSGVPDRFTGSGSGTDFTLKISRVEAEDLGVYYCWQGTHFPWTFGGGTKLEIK
Turning to B11, in test [2], the response was half-maximal at 0.54 nM (EC50) and the MFImax worked out at 15200. In test [3], this molecule had a concentration for a half-maximal effect (EC50) of 0.42 nM and an MFImax of 5180.

B12: cAb3014 (antibody, V domains shown)
VH: QVQLQQPGAELVKPGASVKLSCKASGYTFSIYWMHWVKQRPGQGLEWIGMIHPNSGSTNYNEKFKSKATLTVDKSSSTAYMQLSSLTSEDSAVYYCARGGNYVAMDYWGQGTSVTVSS
VL: QIVLTQSPAIMSASLGERVTMTCTASSSVSSSYLHWYQQKPGSSPKLWIYSTSNLASGVPARFSGSGSGTSYSLTISSMEAEDAATYYCHQYHRSLTFGSGTKLEIK
On to B12, for which the figures for the EC50 in test [2] and in test [3] were 0.65 nM and 0.85 nM, respectively. Besides, the MFImax in test [2] came to 13400; in test [3], 3030.
